The values below are quoted from earlier work in article PMC4101496.

The target in the data set is Asp14 (UniProt position 14, FGAHADDVEIG). Put plainly: kinetics. The following applies: WT enzyme under turnover; pH profiles of Zn2+-BshB and Co2+-BshB reported as identical.

Consider “N-acetylglucosamine-malate deacetylase (BshB) (Bacillus anthracis (per Table 1 accession; the review says BshB from both B. anthracis and B. cereus (BC1534) has been characterised and does not state which gave the pH profile))”, for which the pKa (as a rule, the pH at which an ionisable group is half protonated) was 8.5.
